The values that follow come from paper PMC7961048 (2021).

Where two headings read alike, the source gives them in different places. Non-standard residues stand in square brackets, D forms with d. No end group written: not given here. *: point of attachment. Biotin = O=C1N[C@H]2[C@H](CS[C@H]2CCCCC(=O)*)N1; pT = C[C@@H](OP(=O)(O)O)[C@H](N)C(=O)O; ttds = NCCCOCCOCCOCCCNC(=O)CCC(=O)*

Usually Kd stands for a measure of binding affinity in units of concentration.

Test [1] deals with T1, full-length human 14-3-3γ fused to the C terminus of MBP (human, UniProt P61981 1-247).
T1 chain: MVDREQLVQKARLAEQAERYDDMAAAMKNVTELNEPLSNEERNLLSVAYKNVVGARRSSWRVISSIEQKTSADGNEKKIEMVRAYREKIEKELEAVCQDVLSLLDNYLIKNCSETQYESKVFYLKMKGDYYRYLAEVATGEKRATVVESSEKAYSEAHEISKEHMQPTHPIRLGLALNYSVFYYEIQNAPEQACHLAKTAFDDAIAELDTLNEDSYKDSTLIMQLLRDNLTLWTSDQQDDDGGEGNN
The test can be described thus: FP; with FSC.

The target in test [2] is T2, full-length human 14-3-3σ fused to the C terminus of MBP (human, UniProt P31947 1-248).
T2 chain: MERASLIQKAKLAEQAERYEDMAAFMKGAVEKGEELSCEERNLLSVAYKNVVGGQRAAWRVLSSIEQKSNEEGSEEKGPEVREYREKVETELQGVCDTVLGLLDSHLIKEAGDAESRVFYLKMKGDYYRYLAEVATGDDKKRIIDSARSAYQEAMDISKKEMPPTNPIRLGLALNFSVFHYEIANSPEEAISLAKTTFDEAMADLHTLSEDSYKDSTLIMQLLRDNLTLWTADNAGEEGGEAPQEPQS
The test can be described thus: FP.

Test [3] concerns the target T3, full-length human 14-3-3τ fused to the C terminus of MBP (human, UniProt P27348 1-245).
T3 chain: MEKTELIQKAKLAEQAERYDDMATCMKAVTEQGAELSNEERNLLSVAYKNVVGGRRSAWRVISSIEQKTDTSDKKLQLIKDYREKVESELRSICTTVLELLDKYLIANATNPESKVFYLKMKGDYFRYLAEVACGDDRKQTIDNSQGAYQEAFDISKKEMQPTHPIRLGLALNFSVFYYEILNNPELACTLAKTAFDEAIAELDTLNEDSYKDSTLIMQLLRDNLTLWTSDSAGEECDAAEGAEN
Briefly: FP.

Test [4] deals with T4, full-length human 14-3-3η fused to the C terminus of MBP (human, UniProt Q04917 1-246).
T4 chain: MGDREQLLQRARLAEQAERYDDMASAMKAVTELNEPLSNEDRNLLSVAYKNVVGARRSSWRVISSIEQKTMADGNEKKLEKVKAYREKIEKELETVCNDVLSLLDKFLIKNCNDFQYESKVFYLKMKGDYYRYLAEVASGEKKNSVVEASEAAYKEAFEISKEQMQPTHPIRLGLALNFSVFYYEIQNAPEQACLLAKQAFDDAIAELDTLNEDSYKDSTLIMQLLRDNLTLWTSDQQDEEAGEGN
The test can be described thus: FP.

Test [5] deals with T1, full-length human 14-3-3γ fused to the …. The test can be described thus: FP.
The target of test [6] is T5, full-length human 14-3-3β fused to the C terminus of MBP (human, UniProt P31946 1-246).
T5 chain: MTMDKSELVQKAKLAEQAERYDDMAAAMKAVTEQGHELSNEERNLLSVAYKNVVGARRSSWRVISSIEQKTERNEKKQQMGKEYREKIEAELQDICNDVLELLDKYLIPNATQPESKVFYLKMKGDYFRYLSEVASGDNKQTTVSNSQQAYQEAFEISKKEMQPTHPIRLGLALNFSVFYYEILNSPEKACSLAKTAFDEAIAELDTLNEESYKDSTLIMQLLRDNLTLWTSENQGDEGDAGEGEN
The test can be described thus: FP.

Test [7] concerns the target T6, full-length human 14-3-3ζ fused to the C terminus of MBP (human, UniProt P63104 1-245).
T6 chain: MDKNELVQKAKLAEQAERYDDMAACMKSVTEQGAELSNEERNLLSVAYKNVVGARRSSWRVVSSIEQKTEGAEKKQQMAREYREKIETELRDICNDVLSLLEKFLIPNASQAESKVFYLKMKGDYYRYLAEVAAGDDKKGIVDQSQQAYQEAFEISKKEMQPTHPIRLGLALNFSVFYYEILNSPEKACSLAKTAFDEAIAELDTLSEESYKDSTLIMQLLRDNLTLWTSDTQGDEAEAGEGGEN
The test can be described thus: FP.

The target in test [8] is T7, full-length human 14-3-3ε fused to the C terminus of MBP (human, UniProt P62258 1-255).
T7 chain: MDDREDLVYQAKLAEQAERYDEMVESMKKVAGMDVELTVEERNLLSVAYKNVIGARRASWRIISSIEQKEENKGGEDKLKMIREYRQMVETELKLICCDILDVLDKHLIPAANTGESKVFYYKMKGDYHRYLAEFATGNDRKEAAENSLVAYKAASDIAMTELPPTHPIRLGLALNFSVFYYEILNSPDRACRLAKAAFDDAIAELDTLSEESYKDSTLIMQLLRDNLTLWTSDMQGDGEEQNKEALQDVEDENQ
The test can be described thus: FP.

Test [9] deals with T1, full-length human 14-3-3γ fused to the …. Briefly: FP; +FSC.
Test [10] deals with T6, full-length human 14-3-3ζ fused to the …. Briefly: FP; +FSC.
The target in test [11] is T3, full-length human 14-3-3τ fused to the …. Briefly: FP.
The target in test [12] is T8, unfused 14-3-3ε devoid of the flexible C-terminal tail (human).
T8 chain: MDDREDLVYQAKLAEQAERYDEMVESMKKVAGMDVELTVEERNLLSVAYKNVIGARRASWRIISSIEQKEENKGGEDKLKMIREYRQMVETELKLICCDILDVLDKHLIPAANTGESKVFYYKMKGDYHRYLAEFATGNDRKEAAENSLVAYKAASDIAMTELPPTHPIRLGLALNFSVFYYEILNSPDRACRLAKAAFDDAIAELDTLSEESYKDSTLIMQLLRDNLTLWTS
Briefly: FP.

With {Biotin-ttds}-RLQRRRE[pT]QV [HPV18 E6 phospho-PBM peptide p18E6], the Kd in test [1] was 19.3 µM; in test [2] it was 139 µM; in [3], 37.8 µM; in test [4], 23.6 µM; in test [5] it was 11.1 µM; in [6], 42.2 µM. The Kd in test [7] was found to be 22.4 µM; in [8] it was 101 µM; in test [9], 19.3 µM; in [10] it was 37.3 µM; in test [11], 37.8 µM; in [12] it was 66.2 µM.
In the case of {Biotin-ttds}-SSRTRRE[pT]QL [HPV16 E6 phospho-PBM peptide p16E6], the Kd was 91.7 µM in [1]; more than 300 µM in [2]; 144 µM in [3]; 80.5 µM in [4]; 37.2 µM in test [5]; 159 µM in test [6]. The Kd in test [7] was 73.6 µM; in test [8] it was more than 300 µM; in [9] it was 91.7 µM; in [10], 161 µM; in test [11], 144 µM; in [12], 186 µM.
